Four molecules from EP2469278A1, “Reagentless fluorescent biosensors from nanofitins, rational design methods to create reagentless fluorescent biosensors and methods of their use” (Institut Pasteur, priority 2010, dated 2012) can be followed below.

What is called Kd is the equilibrium constant for the complex coming apart. For orientation: koff means the rate constant with which the complex falls apart. In general, kon refers to a measure of how fast the partners come together.

For assay [1], the target named is T1, hen egg-white lysozyme (hen, UniProt P00698 19-147).
T1 construct: also called HEL
Briefly: Biacore, HEL immobilised; Kd'' dissociation constant at steady state. (Surface plasmon resonance follows binding to a sensor surface in real time, without labels.)

In assay [2] the target is T1, hen egg-white lysozyme. Briefly: Biacore kinetics, HEL immobilised; Kd' = koff/kon.
Assay [3] concerns the target T1, hen egg-white lysozyme. Briefly: Biacore kinetics, HEL immobilised on CM5 chip, buffer E (reducing), 25 °C, 1:1 Langmuir model.
Assay [4] has as its target T1, hen egg-white lysozyme. Nature of the assay: competition Biacore in solution, buffer D; free H4S measured on immobilised HEL.
In assay [5] the target is T2, hen egg-white lysozyme (HEL) (Gallus gallus, UniProt P00698).
T2 construct: hen egg-white lysozyme (HEL); purchased Sigma
Nature of the assay: Selectivity: fluorescence signal of conjugate in mixtures of calf serum and buffer C. Format: binding. The following applies: 0.3 µM conjugate, 10 µM HEL. The procedure:
(§1) The binding and fluorescence experiments were performed at equilibrium as if the preparations of conjugates were homogeneous, i. e. as if yc = 1. The binding reactions were conducted by incubating 0.3 µM of conjugate with variable concentrations of the HEL or BSA antigens in a volume of 1 mL, for 30 min in the dark with gentle shaking. The reactions were carried out in Buffer C or in a mixture v:(1-v) of calf serum and Buffer C as indicated in example 2.
The selectivity of a biosensor refers to the extent to which it can recognize a particular analyte in a complex mixture without interference from other components (Vessman et al., 2001). The selectivity of the H4S(K24ANBD) conjugate was characterized by comparing its fluorescence properties in serum and in buffer C. More specifically, the variations of the F0 and F10µM parameters were measured as functions of the concentration in serum (Figure 3). Given that Kd = 0.1 µM for H4S(K24ANBD), this conjugate was fully saturated with HEL at 10 µM. […] As expected, the absorbance of the serum alone increased linearly with its concentration, in agreement with the Beer-Lambert law, at both 485 nm and 536 nm, which were the wavelengths of fluorescence excitation and emission in our experiments. […] The same increase and decrease was observed when measuring the fluorescence of a conjugate between IANBD and 2-mercaptoethanol. […]

Assay [6] has as its target bovine serum albumin (BSA) (Bos taurus, UniProt P02769). Nature of the assay: Specificity: titration of H4S conjugates with heterologous antigen BSA, monitored by fluorescence.
The target in assay [7] is T2, hen egg-white lysozyme (HEL). Briefly: Titration of H4S conjugates with HEL, monitored by fluorescence. To be noted: for sr: relative sensitivity of the conjugate at a fixed concentration of 0.3 µM (Equation 8), buffer C. Format: binding. The procedure:
as §1
The conjugate (or biosensor) B and antigen A form a 1:1 complex B:A according to the reaction: B + A↔B:A [formula] At equilibrium, the concentration [B:A] of the complex is given by the equation: [B:A] = 0.5{[B]0+[A]0+Kd-(((([B]0+[A]0+Kd))^2-4[B]0[A]0))^(1/2)} [formula] where Kd is the dissociation constant, and [A]0 and [B]0 are the total concentrations of A and B, respectively (Renard et al., 2003).
The fluorescence of the IANBD conjugates was excited at 485 nm (5 nm slit width) and its intensity measured between 520 and 550 nm (20 nm slit width) with a FP-6300 spectrofluorometer (Jasco). The signal of HEL alone or BSA alone was measured in an independent experiment and subtracted from the global signal of the binding mixture to give the specific fluorescence intensity F of each conjugate. The intensity F at a given value of [A]0 satisfies the following equation: (F-F0)/F0 = ΔF/F0 = (ΔF∞/F0)([B:A]/[B]0) [formula] where F0 and F∞ are the values of F at zero and saturating concentrations of A (Renard et al., 2003). The values of ΔF∞/F0, Kd, and [B]0 could be determined by fitting Equation 5, in which [B:A] is given by Equation 4, to the experimental values of ΔF/F0, measured in a titration experiment. The fittings were performed with the Kaleidagraph software (Synergy Software).
The sensitivity s and relative sensitivity sr of a conjugate can be defined by the following equations for the low values of [A]0, i. e. in the initial part of the titration curve: ΔF = s[A]0 [formula] ΔF/F0 = sr [A]0 /[B]0 [formula] s and sr can be expressed as functions of characteristic parameters of the conjugate: sr = (ΔF∞/F0)([B]0/(Kd+[B]0)) [formula] s = fb sr [formula] where fb = F0/[B]0 is the molar fluorescence of the free conjugate (Renard and Bedouelle, 2004). Equation 8 implies that sr is maximal when the biosensor B is present at a concentration [B]0 >> Kd, as every newly titrated molecule A then forms a complex. Equation 6 implies that the lower limit of detection δ[A]0 of the conjugate is linked to the lower limit of measurement of the spectrofluorometer δF by the following equations: δ[A]0 = s^-1 δF = sr^-1 [B]0 (δF/F0) [formula]

Assay [8] has as its target T1, hen egg-white lysozyme. Briefly: from Kd in solution: fluorescence titration of conjugate against competition Biacore of H4S(wt).
Assay [9] has as its target T1, hen egg-white lysozyme. Briefly: fluorescence titration in solution, 0.3 µM conjugate, buffer C, 25 °C (fit R = 0.72).
Assay [10] addresses T1, hen egg-white lysozyme. Nature of the assay: comparison of Kd in solution (fluorescence titration against competition Biacore).
Assay [11] addresses T1, hen egg-white lysozyme. Briefly: fluorescence titration in solution, 0.3 µM conjugate, buffer C, 25 °C.
In a further assay the target is T3, bovine serum albumin (bovine, UniProt P02769 25-607).
T3 construct: Heterologous antigen used as specificity control; also called BSA
Nature of the assay: fluorescence titration with BSA, 0.3 µM conjugate, buffer C.

“And” between values parts separate entries of the source, which are not always exact repeats. Identical values can stand only once.

B1: H4S(wt) (designed binder)
chain: MRGSHHHHHHGSVKVKFFWNGEEKEVDTSKIVWVKRAGKSVLFIYDDNGKNGYGDVTEKDAPKELLDMLARAEREKKLN
notes: Nanofitin derived from Sac7d (Sulfolobus acidocaldarius), H4 with Cys29 changed into Ser29; His-tagged; also called H4S protein; parental Nanofitin H4S(wt)
Regarding B1, the Kd came out at 0.018 µM with hen egg-white lysozyme [1], 0.031 µM with hen egg-white lysozyme [2] and 0.0403 µM with hen egg-white lysozyme [4]. Also, the koff with hen egg-white lysozyme [3] came to 0.015 s⁻¹. The same molecule gave a kon in the assay with hen egg-white lysozyme [3] of 490000 M⁻¹ s⁻¹.

B2: Lys24: H4S conjugate: residue Lys24 changed into cysteine and coupled with IANBD (SEQ ID NO: 61) (conjugate)
chain: MRGSHHHHHHGSVKVKFFWNGEEKEVDTSKIVWVCRAGKSVLFIYDDNGKNGYGDVTEKDAPKELLDMLARAEREKKLN
modifications: IANBD fluorophore on Cys24
Regarding B2, in assay [5] (in ≤ 50 % serum), the “(F10µM - F0)/F0” value is at least 0.25. Also, the “concentration of serum in which the conjugate could still operate” value in assay [5] (serum (v/v) in buffer C) is given as at most 50%. In assay [6] (BSA as antigen, buffer C, 0.3 µM conjugate), the “ΔF∞/F0” value worked out at 0.26± 0.01. The “relative sensitivities sr lower for BSA than for HEL” value in [6] ([B]0 = 0.3 µM) is on record as 106 fold. In [7] (HEL, rounded value quoted in text, read-out: Kd), the Kd was found to be 0.1 µM. Further, the “lower limit of detection δ[A]0” value in assay [7] ([B]0 = 0.3 µM, δF/F0 = […] (Equation 10)) was 0.35 nM. Further, the sr in [7] (HEL) came to 6.61; in assay [7] (HEL, listed as H4S(Lys24ANBD)), 6.6.

B3: H4S conjugate, IANBD fluorophore coupled at position Trp22 (designed binder)
chain: MRGSHHHHHHGSVKVKFFWNGEEKEVDTSKIVCVKRAGKSVLFIYDDNGKNGYGDVTEKDAPKELLDMLARAEREKKLN
modifications: Cys at position 22 (H4S numbering) coupled to IANBD ester (ANBD)
In the case of B3, the “ΔΔG (conjugate against H4S(wt))” value in the assay with hen egg-white lysozyme [8] is at least 6.28 kJ/mol. The molecule further came in with a Kd in the assay with hen egg-white lysozyme [9] of 1.23 µM.

B4: H4S(K24ANBD) (designed binder)
chain: MRGSHHHHHHGSVKVKFFWNGEEKEVDTSKIVWVCRAGKSVLFIYDDNGKNGYGDVTEKDAPKELLDMLARAEREKKLN
modifications: Cys at position 24 (H4S numbering) coupled to IANBD ester (ANBD)
notes: also called H4S(Lys24ANBD); Lys24
Take B4: the “ΔΔG (conjugate against H4S(wt))” value with hen egg-white lysozyme [8] was ≥ 2.09 kJ/mol and ≤ 5.02 kJ/mol. Moreover, in the assay with hen egg-white lysozyme [10], the “fold lower affinity than the parental protein H4S(wt)” value is around 2 fold. Further, in the assay with hen egg-white lysozyme [11], binding was characterised by a dissociation constant (Kd) of 0.098 µM and the “ΔF∞/F0 (maximal relative variation of fluorescence on HEL binding)” value came to 8.8. The molecule further registered a Kd with bovine serum albumin of 1 µM.
